Results on three substances are retold here after PMC2112137.

Experiment [1] has as its target rabbit skeletal muscle F-actin (rabbit) (UniProt P68135). The experiment is described as follows: co-sedimentation.
The target of experiment [2] is plasmodial actin of Physarum polycephalum (pure plasmodial F-actin) (Physarum polycephalum). The experiment is described as follows: co-sedimentation.
Experiment [3] shares this target. The experiment is described as follows: light scattering.
The target in experiment [4] is F-actin-36,000-dalton factor complex (rabbit skeletal F-actin plus Physarum 36,000-dalton factor) (rabbit | Physarum polycephalum) (UniProt P68135). Nature of the experiment: co-sedimentation.

In the case of “36,000-dalton factor (novel 36,000-dalton actin-binding protein from Physarum plasmodia) (natural protein)”, in experiment [1], the factor/actin weight ratio in the pellet (g/g (factor/actin)) is 0.12 and the stoichiometry N (mol actin per mol 36,000-dalton factor) was found to be 6.6.
Turning to “heavy meromyosin (HMM) of rabbit skeletal muscle myosin (complex)”, in experiment [2], the Actin/HMM binding ratio was determined as 0.192 g/g and the stoichiometry N (mol actin per mol HMM) is 2. In experiment [3], this substance displayed an HMM bound by 0.1 mg/ml F-actin (untreated actin) of 0.362 mg/mL and a stoichiometry N (mol actin monomer per mol HMM) of 2.
In the case of “rabbit skeletal muscle troponin (complex)”, the Bound TN (%) in experiment [4] was found to be 25.8%.
